Assay results: the supplement of paper PMC10126150
± gives the standard deviation of the averaged measurements.

Tested on: ATP
Assay: switch fluorescence ratio, 500 uM ATP over buffer (Cy3 cluster intensity, sum of 5 cycles each) (fold (ratio)); higher = stronger signal-on switching upon ATP binding; sequences stand for … in TCGTCGGCAGCGTCAGATGTGTATAAGAGACAGTTTTTTTTTTTTTTTTTTTTTTTTT…TC
Conditions: aptamer strand: ATP DNA aptamer (quencher-CACCTGGGGGAGTATTGCGGAGGAAGG + anchor), 100 nM annealed; ATP concentration: 500 uM
In short: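 Cy3-labelled switching-strand clusters on a modified Illumina MiSeq flow-cell were annealed to 100 nM quencher-labelled ATP aptamer and imaged first in selection buffer, then after 15 min with 500 uM ATP at 22 °C. NaOH stripping and re-annealing separated each of five buffer/ATP cycles, and clusters outside 100-1000 RFU were excluded. The fluorescence ratio sums target-cycle Cy3 intensity over buffer-cycle Cy3 intensity per cluster and averages it per switch-domain sequence.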
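Further: ATP exposure 15 min at 22 °C before imaging.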

**Q.** With TGCTTAGTTC as the sequence, how does the switch fluorescence ratio read?
**A.** 0.959 ± 0.046

**Q.** Which switch fluorescence ratio does the source give for TGAGGGGCTA here?
**A.** 1.01 ± 0.049

**Q.** Which switch fluorescence ratio does the source give for GATGTGTGGC here?
**A.** 0.974 ± 0.022

**Q.** ACCCTAGTTG was tested. Which switch fluorescence ratio did it give?
**A.** 1.148 ± 0.0094

**Q.** With CGGGTAATAG as the sequence, how does the switch fluorescence ratio read?
**A.** 1.46 ± 0.16

**Q.** Which switch fluorescence ratio does the source give for GGCGTGTGGT here?
**A.** 0.991 ± 0.066

**Q.** For GTTGCTGTCA, which switch fluorescence ratio is on record?
**A.** 1.06 ± 0.043

**Q.** For GGGAAGACGC, which switch fluorescence ratio is on record?
**A.** 0.978 ± 0.025

**Q.** How did the switch fluorescence ratio turn out when TAGTGTGTAT was run?
**A.** 0.9516 ± 0.0088

**Q.** For GCGATTCCAG, which switch fluorescence ratio is on record?
**A.** 1.02 ± 0.0065

**Q.** CTATCACCTG was tested. Which switch fluorescence ratio did it give?
**A.** 1.05 ± 0.021

**Q.** How did the switch fluorescence ratio turn out when TAGTTCACGG was run?
**A.** 0.9991 ± 0.0073

**Q.** For GGGTTGGATT, which switch fluorescence ratio is on record?
**A.** 0.991 ± 0.023

**Q.** With TTAGTGACGT as the sequence, how does the switch fluorescence ratio read?
**A.** 1.037 ± 0.0016

**Q.** For GGGTGGGCCT, which switch fluorescence ratio is on record?
**A.** 0.989 ± 0.042

**Q.** How did the switch fluorescence ratio turn out when TGGGATGTTT was run?
**A.** 0.982 ± 0.026

**Q.** GATTGGGACT was tested. Which switch fluorescence ratio did it give?
**A.** 0.975 ± 0.027

**Q.** For CCCTAACCCG, which switch fluorescence ratio is on record?
**A.** 1.18 ± 0.055

**Q.** TATGAATTGT was tested. Which switch fluorescence ratio did it give?
**A.** 1.014 ± 0.01

**Q.** With TGGGTGTATC as the sequence, how does the switch fluorescence ratio read?
**A.** 1.004 ± 0.0022

**Q.** TACGATAATC was tested. Which switch fluorescence ratio did it give?
**A.** 1.146 ± 0.011

**Q.** GCGGAGGCTG was tested. Which switch fluorescence ratio did it give?
**A.** 0.97393 ± 0.00027

**Q.** TGCAACGTTT was tested. Which switch fluorescence ratio did it give?
**A.** 0.971 ± 0.024

**Q.** Which switch fluorescence ratio does the source give for TGCGAGGGCA here?
**A.** 1.02 ± 0.0087

**Q.** How did the switch fluorescence ratio turn out when TATTAGGTTT was run?
**A.** 0.991 ± 0.018

**Q.** How did the switch fluorescence ratio turn out when AATTTTGCTT was run?
**A.** 1.01 ± 0.015

**Q.** GGTCTCCGGC was tested. Which switch fluorescence ratio did it give?
**A.** 1.01 ± 0.065

**Q.** TTTGCAACAG was tested. Which switch fluorescence ratio did it give?
**A.** 0.986 ± 0.023

**Q.** Which switch fluorescence ratio does the source give for GGAATGACGG here?
**A.** 1.012 ± 0.0024

**Q.** How did the switch fluorescence ratio turn out when AAGGTGGATA was run?
**A.** 1.11 ± 0.032

**Q.** With GGTGTCCGGG as the sequence, how does the switch fluorescence ratio read?
**A.** 0.9986 ± 0.0019

**Q.** For ATGGTGAGTT, which switch fluorescence ratio is on record?
**A.** 1 ± 0.015

**Q.** How did the switch fluorescence ratio turn out when GGTGGAGTTT was run?
**A.** 0.987 ± 0.015

**Q.** For ATGCAGGGTT, which switch fluorescence ratio is on record?
**A.** 0.978 ± 0.053

**Q.** Which switch fluorescence ratio does the source give for TGATTTTACG here?
**A.** 0.983 ± 0.019

**Q.** With ATTTAGTTTC as the sequence, how does the switch fluorescence ratio read?
**A.** 0.976 ± 0.026

**Q.** Which switch fluorescence ratio does the source give for CATGTGACCA here?
**A.** 0.988 ± 0.038

**Q.** GCTAGTTGTA was tested. Which switch fluorescence ratio did it give?
**A.** 0.9995 ± 0.0074

**Q.** With CATCAATGTG as the sequence, how does the switch fluorescence ratio read?
**A.** 0.997 ± 0.052

**Q.** With ATTATTAGCT as the sequence, how does the switch fluorescence ratio read?
**A.** 0.996 ± 0.012

**Q.** For AGTTGAAACA, which switch fluorescence ratio is on record?
**A.** 1.02 ± 0.016

**Q.** How did the switch fluorescence ratio turn out when CCAAATCGGA was run?
**A.** 1 ± 0.022

**Q.** Which switch fluorescence ratio does the source give for TCCGGGGGAC here?
**A.** 1.52 ± 0.59

**Q.** How did the switch fluorescence ratio turn out when CAGAAGACAG was run?
**A.** 0.995 ± 0.071

**Q.** With TTTCGGCGCG as the sequence, how does the switch fluorescence ratio read?
**A.** 1.02 ± 0.038

**Q.** For GACTAAAAGA, which switch fluorescence ratio is on record?
**A.** 0.99 ± 0.055

**Q.** Which switch fluorescence ratio does the source give for TAAGTGGTT here?
**A.** 0.994 ± 0.011

**Q.** How did the switch fluorescence ratio turn out when TTAAGTAATG was run?
**A.** 1.002 ± 0.0016

**Q.** AATTTCGGAC was tested. Which switch fluorescence ratio did it give?
**A.** 1.07 ± 0.071

**Q.** With GTGTCTCCAG as the sequence, how does the switch fluorescence ratio read?
**A.** 1.03 ± 0.049

**Q.** TAGGGTGAGC was tested. Which switch fluorescence ratio did it give?
**A.** 1.02 ± 0.019

**Q.** CCTAACGCAG was tested. Which switch fluorescence ratio did it give?
**A.** 2.32 ± 0.43

**Q.** With GAGCCTGGGT as the sequence, how does the switch fluorescence ratio read?
**A.** 1.01 ± 0.017

**Q.** With TTTGTAAAAG as the sequence, how does the switch fluorescence ratio read?
**A.** 0.977 ± 0.033

**Q.** TTCCTTGGTT was tested. Which switch fluorescence ratio did it give?
**A.** 1.01 ± 0.012

**Q.** For TGCTATATTT, which switch fluorescence ratio is on record?
**A.** 1.01 ± 0.024

**Q.** How did the switch fluorescence ratio turn out when GGCACTTCGG was run?
**A.** 0.99 ± 0.014

**Q.** Which switch fluorescence ratio does the source give for GTGCTTAGGC here?
**A.** 1.06 ± 0.026

**Q.** Which switch fluorescence ratio does the source give for GGTCAGCCGG here?
**A.** 1.02 ± 0.012

**Q.** For TTCTGTTGGG, which switch fluorescence ratio is on record?
**A.** 0.984 ± 0.013

**Q.** How did the switch fluorescence ratio turn out when ACGTGTGCGG was run?
**A.** 0.959 ± 0.031

**Q.** For CGATATGTTT, which switch fluorescence ratio is on record?
**A.** 1.01 ± 0.079

**Q.** For ACATCGTCGG, which switch fluorescence ratio is on record?
**A.** 1.014 ± 0.0091

**Q.** For TATGAGGGGA, which switch fluorescence ratio is on record?
**A.** 1.02 ± 0.032

**Q.** How did the switch fluorescence ratio turn out when GTGCTTGGGC was run?
**A.** 0.9955 ± 0.0058

**Q.** With TTGTGATGGA as the sequence, how does the switch fluorescence ratio read?
**A.** 0.9896 ± 0.008

**Q.** TTTGCGCTCG was tested. Which switch fluorescence ratio did it give?
**A.** 0.968 ± 0.037

**Q.** With CTTGGGCGGA as the sequence, how does the switch fluorescence ratio read?
**A.** 1.027 ± 0.008

**Q.** For CCTAGTGTTC, which switch fluorescence ratio is on record?
**A.** 0.9801 ± 0.0083

**Q.** With TGTCTCTACG as the sequence, how does the switch fluorescence ratio read?
**A.** 1.021 ± 0.01

**Q.** Which switch fluorescence ratio does the source give for CTCGGGAGAA here?
**A.** 1.016 ± 0.0039

**Q.** For CAGTCGGGTT, which switch fluorescence ratio is on record?
**A.** 1.03 ± 0.079

**Q.** With GCCGCGCGCT as the sequence, how does the switch fluorescence ratio read?
**A.** 1 ± 0.082

**Q.** For GACGGGTTTG, which switch fluorescence ratio is on record?
**A.** 0.9915 ± 0.0074

**Q.** GGGGTTGTTT was tested. Which switch fluorescence ratio did it give?
**A.** 1.03 ± 0.08

**Q.** ATTGTGAGGT was tested. Which switch fluorescence ratio did it give?
**A.** 0.992 ± 0.039

**Q.** For TAAAAGGGTG, which switch fluorescence ratio is on record?
**A.** 0.977 ± 0.033

**Q.** With ACTGGCCCCG as the sequence, how does the switch fluorescence ratio read?
**A.** 1.34 ± 0.41

**Q.** With GTTATTAGAG as the sequence, how does the switch fluorescence ratio read?
**A.** 0.987 ± 0.026

**Q.** GGCTCAGGCA was tested. Which switch fluorescence ratio did it give?
**A.** 1.04 ± 0.023

**Q.** ATTAGTGTTT was tested. Which switch fluorescence ratio did it give?
**A.** 0.976 ± 0.027

**Q.** TGAGGGCAGG was tested. Which switch fluorescence ratio did it give?
**A.** 1.023 ± 0.007

**Q.** CGGGGGGACT was tested. Which switch fluorescence ratio did it give?
**A.** 0.998 ± 0.059

**Q.** TTGGGAATTC was tested. Which switch fluorescence ratio did it give?
**A.** 0.98044 ± 0.00048

**Q.** Which switch fluorescence ratio does the source give for TGAGTCTCTG here?
**A.** 0.998 ± 0.012

**Q.** AGAGTGTAGG was tested. Which switch fluorescence ratio did it give?
**A.** 1.08 ± 0.034

**Q.** How did the switch fluorescence ratio turn out when CTAAAGGTTT was run?
**A.** 1.004 ± 0.003

**Q.** For GAAGAGGGTT, which switch fluorescence ratio is on record?
**A.** 0.972 ± 0.033

**Q.** GGTTAACTTG was tested. Which switch fluorescence ratio did it give?
**A.** 0.975 ± 0.034

**Q.** For AGATGGTTGC, which switch fluorescence ratio is on record?
**A.** 0.958 ± 0.021

**Q.** For AGGCGTGGGG, which switch fluorescence ratio is on record?
**A.** 1.03 ± 0.017

**Q.** Which switch fluorescence ratio does the source give for ACGTATTTGT here?
**A.** 1.11 ± 0.013

**Q.** Which switch fluorescence ratio does the source give for ACAGGCTTTT here?
**A.** 1 ± 0.018

**Q.** How did the switch fluorescence ratio turn out when GGGGCGACGT was run?
**A.** 0.977 ± 0.023

**Q.** CGGCAGGGGT was tested. Which switch fluorescence ratio did it give?
**A.** 1.11 ± 0.064

**Q.** For GGGGGGCTTT, which switch fluorescence ratio is on record?
**A.** 0.986 ± 0.022

**Q.** For AGGTTTGCGG, which switch fluorescence ratio is on record?
**A.** 1.011 ± 0.0037

**Q.** For TAGGGGGCGC, which switch fluorescence ratio is on record?
**A.** 1.02 ± 0.039

**Q.** Which switch fluorescence ratio does the source give for AGATATTTTG here?
**A.** 0.988 ± 0.039

**Q.** How did the switch fluorescence ratio turn out when TCCGGGGGGT was run?
**A.** 1.05 ± 0.025
